Laboratory results as given in doi:10.1101/2022.09.26.509487, “DNA methylation at a single cytosine embedded in the W-box cis-element repels binding of WRKY transcription factors through steric hindrance”.

T1: AtWRKY40 DBD (Arabidopsis thaliana, UniProt Q9SAH7 131-207)
T1 sequence: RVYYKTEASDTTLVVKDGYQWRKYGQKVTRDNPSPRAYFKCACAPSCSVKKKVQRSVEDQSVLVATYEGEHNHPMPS

B1: RLP43 W-box 5mC4 (dsDNA)
DNA 1: CGTAGGGTCAAGCTGT
DNA 2: ACAGCTTGACCCTACG
modifications: 5-methyl-dC at forward strand position 9 (W-box C4)
B2: RLP43 W-box, unmethylated (dsDNA)
DNA 1: CGTAGGGTCAAGCTGT
DNA 2: ACAGCTTGACCCTACG
B3: RLP43 W-box 5mC4 + 5mC1 5mC2 (dsDNA)
DNA 1: CGTAGGGTCAAGCTGT
DNA 2: ACAGCTTGACCCTACG
modifications: 5-methyl-dC at forward position 9 (C4) and reverse positions 10 and 11 (C2, C1)

molecular target: T1, AtWRKY40 DBD; assay: BLI; steady state; BLI (Octet RED96e, SA sensors): 50 mM Hepes pH 7, 150 mM NaCl, 0.05% Tween20, 25 C, 1000 rpm; duplex loaded at 40 nM, protein 0.25-10 uM; details: protein: recombinant; tags: N-terminal 6xHis (pET28a); label: biotin on forward strand (printed at 5' end); blunt

First: B1
Second: B2
The Kd of the first is 19-fold higher: 12 µM for the first, 0.63 µM for the second. The second binds more tightly here.

B3 was tested, and the Kd was 9.2 µM.
